Test results as given in IntAct's records for PubMed 31474574.

B1: SURP and G-patch domain-containing protein 1 (Homo sapiens), Q8IWZ8 (parent)
chain: MSLKMDNRDVAGKANRWFGVAPPKSGKMNMNILHQEELIAQKKREIEAKMEQKAKQNQVASPQPPHPGEITNAHNSSCISNKFANDGSFLQQFLKLQKAQTSTDAPTSAPSAPPSTPTPSAGKRSLLISRRTGLGLASLPGPVKSYSHAKQLPVAHRPSVFQSPDEDEEEDYEQWLEIKVSPPEGAETRKVIEKLARFVAEGGPELEKVAMEDYKDNPAFAFLHDKNSREFLYYRKKVAEIRKEAQKSQAASQKVSPPEDEEVKNLAEKLARFIADGGPEVETIALQNNRENQAFSFLYEPNSQGYKYYRQKLEEFRKAKASSTGSFTAPDPGLKRKSPPEALSGSLPPATTCPASSTPAPTIIPAPAAPGKPASAATVKRKRKSRWGPEEDKVELPPAELVQRDVDASPSPLSVQDLKGLGYEKGKPVGLVGVTELSDAQKKQLKEQQEMQQMYDMIMQHKRAMQDMQLLWEKAVQQHQHGYDSDEEVDSELGTWEHQLRRMEMDKTREWAEQLTKMGRGKHFIGDFLPPDELEKFMETFKALKEGREPDYSEYKEFKLTVENIGYQMLMKMGWKEGEGLGSEGQGIKNPVNKGTTTVDGAGFGIDRPAELSKEDDEYEAFRKRMMLAYRFRPNPLNNPRRPYY
B2: Splicing factor 3B subunit 1 (Homo sapiens), O75533 (parent)
chain: MAKIAKTHEDIEAQIREIQGKKAALDEAQGVGLDSTGYYDQEIYGGSDSRFAGYVTSIAATELEDDDDDYSSSTSLLGQKKPGYHAPVALLNDIPQSTEQYDPFAEHRPPKIADREDEYKKHRRTMIISPERLDPFADGGKTPDPKMNARTYMDVMREQHLTKEEREIRQQLAEKAKAGELKVVNGAAASQPPSKRKRRWDQTADQTPGATPKKLSSWDQAETPGHTPSLRWDETPGRAKGSETPGATPGSKIWDPTPSHTPAGAATPGRGDTPGHATPGHGGATSSARKNRWDETPKTERDTPGHGSGWAETPRTDRGGDSIGETPTPGASKRKSRWDETPASQMGGSTPVLTPGKTPIGTPAMNMATPTPGHIMSMTPEQLQAWRWEREIDERNRPLSDEELDAMFPEGYKVLPPPAGYVPIRTPARKLTATPTPLGGMTGFHMQTEDRTMKSVNDQPSGNLPFLKPDDIQYFDKLLVDVDESTLSPEEQKERKIMKLLLKIKNGTPPMRKAALRQITDKAREFGAGPLFNQILPLLMSPTLEDQERHLLVKVIDRILYKLDDLVRPYVHKILVVIEPLLIDEDYYARVEGREIISNLAKAAGLATMISTMRPDIDNMDEYVRNTTARAFAVVASALGIPSLLPFLKAVCKSKKSWQARHTGIKIVQQIAILMGCAILPHLRSLVEIIEHGLVDEQQKVRTISALAIAALAEAATPYGIESFDSVLKPLWKGIRQHRGKGLAAFLKAIGYLIPLMDAEYANYYTREVMLILIREFQSPDEEMKKIVLKVVKQCCGTDGVEANYIKTEILPPFFKHFWQHRMALDRRNYRQLVDTTVELANKVGAAEIISRIVDDLKDEAEQYRKMVMETIEKIMGNLGAADIDHKLEEQLIDGILYAFQEQTTEDSVMLNGFGTVVNALGKRVKPYLPQICGTVLWRLNNKSAKVRQQAADLISRTAVVMKTCQEEKLMGHLGVVLYEYLGEEYPEVLGSILGALKAIVNVIGMHKMTPPIKDLLPRLTPILKNRHEKVQENCIDLVGRIADRGAEYVSAREWMRICFELLELLKAHKKAIRRATVNTFGYIAKAIGPHDVLATLLNNLKVQERQNRVCTTVAIAIVAETCSPFTVLPALMNEYRVPELNVQNGVLKSLSFLFEYIGEMGKDYIYAVTPLLEDALMDRDLVHRQTASAVVQHMSLGVYGFGCEDSLNHLLNYVWPNVFETSPHVIQAVMGALEGLRVAIGPCRMLQYCLQGLFHPARKVRDVYWKIYNSIYIGSQDALIAHYPRIYNDDKNTYIRYELDYIL
partner: B1 chain

Variants of: B1
Details: with U2AF2, P26368
U2AF2, P26368, sequence (P26368 whole entry): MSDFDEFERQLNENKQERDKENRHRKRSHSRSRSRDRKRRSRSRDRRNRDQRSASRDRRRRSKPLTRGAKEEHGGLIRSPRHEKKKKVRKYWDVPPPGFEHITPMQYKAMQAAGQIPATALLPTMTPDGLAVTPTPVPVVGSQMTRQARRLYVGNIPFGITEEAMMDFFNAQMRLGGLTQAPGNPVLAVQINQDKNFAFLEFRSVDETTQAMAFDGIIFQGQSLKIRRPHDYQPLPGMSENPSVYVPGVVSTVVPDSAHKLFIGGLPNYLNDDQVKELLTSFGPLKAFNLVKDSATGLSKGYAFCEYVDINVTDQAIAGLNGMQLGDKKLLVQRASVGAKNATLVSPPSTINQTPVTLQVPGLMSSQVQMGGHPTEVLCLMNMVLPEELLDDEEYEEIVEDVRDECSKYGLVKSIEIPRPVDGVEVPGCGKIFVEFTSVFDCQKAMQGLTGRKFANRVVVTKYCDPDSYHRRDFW

Variant	effect of a mutation on the interaction
W387A	disrupting interaction strength

Variants of: B2
Details: with sugp1_human SUGP1, Q8IWZ8

Variant	effect of a mutation on the interaction
K700E	decreasing interaction strength

Variants of: B2
Details: with sugp1_human SUGP1, Q8IWZ8
Remark: another data set of the same source

Variant	effect of a mutation on the interaction
K700E	disrupting interaction strength
E622D	disrupting interaction strength
R625C	disrupting interaction strength
H662Q	disrupting interaction strength
K666N	decreasing interaction strength
